What all share (experiment): SPR (Biacore);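 note: antibody variants captured on sensor chip, Fcγ receptor flowed over at 25 °C, bound receptor normalized to amount of captured antibody, expressed relative to reference antibody set as 100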
One assay deals with T1, human FcγRIIIa(F) (human, UniProt P08637 17-208, limits assumed).
T1 construct: also called FcgRIIIaF; allotype F158

A further assay deals with T2, human FcγRIIa(R) (human, UniProt P12318 36-217).
T2 construct: also called FcgRIIaR; FcγRIIa type R
T2 chain: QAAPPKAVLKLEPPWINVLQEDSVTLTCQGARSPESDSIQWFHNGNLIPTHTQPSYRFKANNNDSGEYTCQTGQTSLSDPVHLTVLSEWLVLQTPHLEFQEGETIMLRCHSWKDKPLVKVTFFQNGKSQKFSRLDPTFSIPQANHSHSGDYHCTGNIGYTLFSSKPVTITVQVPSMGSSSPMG

The next assay has as its target T3, human FcγRIIa(H) (human, UniProt P12318 36-217).
T3 construct: also called FcgRIIaH; FcγRIIa type H
T3 sequence: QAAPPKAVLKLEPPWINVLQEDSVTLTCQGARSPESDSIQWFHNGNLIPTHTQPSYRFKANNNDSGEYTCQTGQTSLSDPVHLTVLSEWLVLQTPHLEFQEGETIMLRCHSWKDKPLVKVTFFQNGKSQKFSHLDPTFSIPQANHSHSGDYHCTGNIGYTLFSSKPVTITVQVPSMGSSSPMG

The target in a further assay is T4, human FcγRIa (human, UniProt P12314 16-292, limits assumed).
T4 construct: also called FcgRIa; FcγRI (CD64)
T4 sequence (P12314 16-292 limits assumed): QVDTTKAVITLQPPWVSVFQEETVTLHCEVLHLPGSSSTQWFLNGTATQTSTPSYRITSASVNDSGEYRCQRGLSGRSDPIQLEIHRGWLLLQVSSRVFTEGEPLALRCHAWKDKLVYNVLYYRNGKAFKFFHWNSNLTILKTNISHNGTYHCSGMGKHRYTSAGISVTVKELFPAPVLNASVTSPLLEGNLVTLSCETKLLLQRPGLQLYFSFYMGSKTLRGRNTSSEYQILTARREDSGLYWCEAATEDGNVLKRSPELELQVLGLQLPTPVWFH

A further assay concerns the target T5, human FcγRIIb (human, UniProt P31994 43-217, limits assumed).
T5 construct: also called FcgRIIb
T5 sequence: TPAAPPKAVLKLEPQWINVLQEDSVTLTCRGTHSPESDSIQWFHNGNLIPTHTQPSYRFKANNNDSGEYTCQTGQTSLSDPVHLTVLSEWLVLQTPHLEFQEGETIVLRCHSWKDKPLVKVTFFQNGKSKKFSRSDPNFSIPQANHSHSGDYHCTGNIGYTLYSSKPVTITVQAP

T1 sequence (P08637 other isoform, or with tags, fused parts or gaps limits assumed): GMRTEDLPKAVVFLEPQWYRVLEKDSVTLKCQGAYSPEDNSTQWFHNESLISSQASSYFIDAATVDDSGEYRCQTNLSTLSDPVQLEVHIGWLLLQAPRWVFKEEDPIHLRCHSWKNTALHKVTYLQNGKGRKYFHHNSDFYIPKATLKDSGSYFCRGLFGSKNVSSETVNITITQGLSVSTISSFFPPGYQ

B1: GpH7-B3 variant L235G/GpL16-k0 (antibody, human IgG1)
heavy: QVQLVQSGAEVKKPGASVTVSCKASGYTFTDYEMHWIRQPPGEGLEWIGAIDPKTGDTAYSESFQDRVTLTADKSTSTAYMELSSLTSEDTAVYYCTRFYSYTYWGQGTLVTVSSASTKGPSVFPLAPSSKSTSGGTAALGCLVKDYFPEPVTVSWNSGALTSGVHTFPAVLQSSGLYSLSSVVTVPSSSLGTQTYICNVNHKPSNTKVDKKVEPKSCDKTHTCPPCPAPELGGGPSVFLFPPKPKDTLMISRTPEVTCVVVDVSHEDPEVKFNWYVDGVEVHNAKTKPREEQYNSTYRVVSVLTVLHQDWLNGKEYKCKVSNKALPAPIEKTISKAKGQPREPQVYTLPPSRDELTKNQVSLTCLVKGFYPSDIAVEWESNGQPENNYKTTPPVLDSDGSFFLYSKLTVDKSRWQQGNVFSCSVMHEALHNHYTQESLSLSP
light: DIVMTQSPLSLPVTPGEPASISCQASESLVHSNRNTYLHWYLQKPGQSPQLLIYKVSNRFSGVPDRFSGSGSGTDFTLKISRVEAEDVGVYYCSQNTHVPPTFGQGTKVEIE
notes: copies: 2 + 2
For the molecule B1, the relative binding activity is 13 % of GpH7-B3/GpL16-k0 in the assay with human FcγRIIIa(F); 6 % of GpH7-B3/GpL16-k0 with human FcγRIIa(R); 7 % of GpH7-B3/GpL16-k0 with human FcγRIIa(H); 16 % of GpH7-B3/GpL16-k0 in the assay with human FcγRIa; 3 % of GpH7-B3/GpL16-k0 with human FcγRIIb.

B2: GpH7-B3 variant P238G/GpL16-k0 (antibody, human IgG1)
heavy: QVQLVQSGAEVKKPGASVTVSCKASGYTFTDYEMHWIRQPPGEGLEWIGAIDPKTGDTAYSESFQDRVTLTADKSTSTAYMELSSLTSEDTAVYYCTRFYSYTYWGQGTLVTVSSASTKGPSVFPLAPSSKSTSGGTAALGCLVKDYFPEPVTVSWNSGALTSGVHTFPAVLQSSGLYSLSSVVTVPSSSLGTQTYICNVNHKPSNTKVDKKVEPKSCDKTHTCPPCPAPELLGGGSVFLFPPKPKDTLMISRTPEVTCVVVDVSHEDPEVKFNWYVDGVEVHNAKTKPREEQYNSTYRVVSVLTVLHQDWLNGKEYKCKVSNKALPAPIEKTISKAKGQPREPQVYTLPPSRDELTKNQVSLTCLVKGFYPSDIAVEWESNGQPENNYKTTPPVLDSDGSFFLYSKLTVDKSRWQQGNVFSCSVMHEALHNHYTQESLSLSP
light: DIVMTQSPLSLPVTPGEPASISCQASESLVHSNRNTYLHWYLQKPGQSPQLLIYKVSNRFSGVPDRFSGSGSGTDFTLKISRVEAEDVGVYYCSQNTHVPPTFGQGTKVEIE
notes: copies: 2 + 2
Regarding B2, the relative binding activity with human FcγRIIIa(F) is 0 % of GpH7-B3/GpL16-k0; with human FcγRIIa(R), 4 % of GpH7-B3/GpL16-k0; with human FcγRIIa(H), 1 % of GpH7-B3/GpL16-k0; with human FcγRIa, 65 % of GpH7-B3/GpL16-k0; in the assay with human FcγRIIb, 27 % of GpH7-B3/GpL16-k0.

B3: GpH7-B3 variant P238N/GpL16-k0 (antibody, human IgG1)
heavy: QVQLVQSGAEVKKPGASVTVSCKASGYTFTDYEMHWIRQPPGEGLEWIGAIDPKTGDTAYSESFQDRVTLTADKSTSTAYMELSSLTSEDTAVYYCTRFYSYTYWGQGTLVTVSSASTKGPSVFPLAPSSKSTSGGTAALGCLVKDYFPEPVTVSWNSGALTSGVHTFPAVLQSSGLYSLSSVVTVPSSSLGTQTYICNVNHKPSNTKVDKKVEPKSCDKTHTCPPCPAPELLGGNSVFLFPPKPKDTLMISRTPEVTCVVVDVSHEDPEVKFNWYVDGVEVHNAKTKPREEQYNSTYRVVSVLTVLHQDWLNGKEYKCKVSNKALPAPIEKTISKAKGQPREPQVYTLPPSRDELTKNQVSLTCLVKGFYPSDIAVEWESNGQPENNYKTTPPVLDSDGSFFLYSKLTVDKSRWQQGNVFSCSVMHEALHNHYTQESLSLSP
light: DIVMTQSPLSLPVTPGEPASISCQASESLVHSNRNTYLHWYLQKPGQSPQLLIYKVSNRFSGVPDRFSGSGSGTDFTLKISRVEAEDVGVYYCSQNTHVPPTFGQGTKVEIE
notes: copies: 2 + 2
As for B3, the relative binding activity with human FcγRIIIa(F) was -1 % of GpH7-B3/GpL16-k0; in the assay with human FcγRIIa(R) it was 5 % of GpH7-B3/GpL16-k0; with human FcγRIIa(H), 1 % of GpH7-B3/GpL16-k0; with human FcγRIa, 64 % of GpH7-B3/GpL16-k0; in the assay with human FcγRIIb, 27 % of GpH7-B3/GpL16-k0.

B4: GpH7-B3 variant L235T/GpL16-k0 (antibody, human IgG1)
heavy: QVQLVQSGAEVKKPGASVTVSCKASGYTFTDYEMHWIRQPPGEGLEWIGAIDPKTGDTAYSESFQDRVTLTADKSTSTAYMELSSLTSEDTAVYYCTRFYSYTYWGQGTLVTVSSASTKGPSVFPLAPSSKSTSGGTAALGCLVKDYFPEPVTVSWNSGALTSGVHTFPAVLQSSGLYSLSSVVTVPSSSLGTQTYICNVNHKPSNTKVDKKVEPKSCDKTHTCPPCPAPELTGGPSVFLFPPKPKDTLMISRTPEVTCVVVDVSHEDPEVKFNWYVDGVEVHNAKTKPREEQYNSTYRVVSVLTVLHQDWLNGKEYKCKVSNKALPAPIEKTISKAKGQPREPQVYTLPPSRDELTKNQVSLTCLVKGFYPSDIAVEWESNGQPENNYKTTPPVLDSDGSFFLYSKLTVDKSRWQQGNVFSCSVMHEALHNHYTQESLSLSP
light: DIVMTQSPLSLPVTPGEPASISCQASESLVHSNRNTYLHWYLQKPGQSPQLLIYKVSNRFSGVPDRFSGSGSGTDFTLKISRVEAEDVGVYYCSQNTHVPPTFGQGTKVEIE
notes: copies: 2 + 2
Turning to B4, the relative binding activity with human FcγRIIIa(F) is 48 % of GpH7-B3/GpL16-k0; in the assay with human FcγRIIa(R), 28 % of GpH7-B3/GpL16-k0; with human FcγRIIa(H) it was 47 % of GpH7-B3/GpL16-k0; in the assay with human FcγRIa it was 8 % of GpH7-B3/GpL16-k0; with human FcγRIIb, 26 % of GpH7-B3/GpL16-k0.

B5: GpH7-B3 variant P238K/GpL16-k0 (antibody, human IgG1)
heavy: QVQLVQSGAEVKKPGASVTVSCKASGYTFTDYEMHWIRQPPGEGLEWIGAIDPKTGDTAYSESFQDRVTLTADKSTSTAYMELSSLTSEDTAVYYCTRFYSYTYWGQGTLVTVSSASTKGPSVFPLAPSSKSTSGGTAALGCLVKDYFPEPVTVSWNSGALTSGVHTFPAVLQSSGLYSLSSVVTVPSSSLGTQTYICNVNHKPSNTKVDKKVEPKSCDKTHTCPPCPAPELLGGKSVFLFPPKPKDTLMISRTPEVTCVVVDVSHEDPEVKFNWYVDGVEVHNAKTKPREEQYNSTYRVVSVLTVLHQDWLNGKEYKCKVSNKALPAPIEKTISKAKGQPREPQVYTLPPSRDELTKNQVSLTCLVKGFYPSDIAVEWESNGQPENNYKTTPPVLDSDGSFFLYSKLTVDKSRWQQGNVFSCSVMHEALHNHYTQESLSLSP
light: DIVMTQSPLSLPVTPGEPASISCQASESLVHSNRNTYLHWYLQKPGQSPQLLIYKVSNRFSGVPDRFSGSGSGTDFTLKISRVEAEDVGVYYCSQNTHVPPTFGQGTKVEIE
notes: copies: 2 + 2
B5: the relative binding activity with human FcγRIIIa(F) was -1 % of GpH7-B3/GpL16-k0; with human FcγRIIa(R) it was -2 % of GpH7-B3/GpL16-k0; in the assay with human FcγRIIa(H), -1 % of GpH7-B3/GpL16-k0; in the assay with human FcγRIa it was 8 % of GpH7-B3/GpL16-k0; with human FcγRIIb, -2 % of GpH7-B3/GpL16-k0.

B6: GpH7-B3 variant L235P/GpL16-k0 (antibody, human IgG1)
heavy: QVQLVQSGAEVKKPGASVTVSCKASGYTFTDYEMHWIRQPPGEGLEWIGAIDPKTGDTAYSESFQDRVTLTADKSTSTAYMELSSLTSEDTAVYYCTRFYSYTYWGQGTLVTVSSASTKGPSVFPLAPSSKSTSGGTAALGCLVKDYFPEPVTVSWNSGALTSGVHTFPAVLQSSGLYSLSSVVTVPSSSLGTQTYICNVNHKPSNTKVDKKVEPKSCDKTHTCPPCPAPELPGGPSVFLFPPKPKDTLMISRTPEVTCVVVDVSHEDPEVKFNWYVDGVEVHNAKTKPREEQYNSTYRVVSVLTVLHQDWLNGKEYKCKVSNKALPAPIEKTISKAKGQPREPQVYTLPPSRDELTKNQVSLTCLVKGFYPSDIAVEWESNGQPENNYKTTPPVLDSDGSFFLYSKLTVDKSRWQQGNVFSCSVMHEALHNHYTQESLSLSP
light: DIVMTQSPLSLPVTPGEPASISCQASESLVHSNRNTYLHWYLQKPGQSPQLLIYKVSNRFSGVPDRFSGSGSGTDFTLKISRVEAEDVGVYYCSQNTHVPPTFGQGTKVEIE
notes: copies: 2 + 2
With B6, the relative binding activity was 47 % of GpH7-B3/GpL16-k0 with human FcγRIIIa(F); 38 % of GpH7-B3/GpL16-k0 with human FcγRIIa(R); 33 % of GpH7-B3/GpL16-k0 with human FcγRIIa(H); 3 % of GpH7-B3/GpL16-k0 with human FcγRIa; 32 % of GpH7-B3/GpL16-k0 in the assay with human FcγRIIb.

B7: GpH7-B3 variant L235V/GpL16-k0 (antibody, human IgG1)
heavy: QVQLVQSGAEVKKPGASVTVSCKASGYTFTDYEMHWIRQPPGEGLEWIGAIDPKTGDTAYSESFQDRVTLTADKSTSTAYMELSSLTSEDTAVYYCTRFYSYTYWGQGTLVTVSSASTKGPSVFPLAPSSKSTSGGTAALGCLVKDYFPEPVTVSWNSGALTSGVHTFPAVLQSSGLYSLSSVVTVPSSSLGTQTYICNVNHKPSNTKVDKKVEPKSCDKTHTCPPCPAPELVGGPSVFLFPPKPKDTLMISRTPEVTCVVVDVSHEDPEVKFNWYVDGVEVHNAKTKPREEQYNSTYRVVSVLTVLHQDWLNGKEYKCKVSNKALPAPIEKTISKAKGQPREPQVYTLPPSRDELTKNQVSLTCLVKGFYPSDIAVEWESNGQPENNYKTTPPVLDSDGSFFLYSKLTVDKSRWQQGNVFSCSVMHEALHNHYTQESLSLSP
light: DIVMTQSPLSLPVTPGEPASISCQASESLVHSNRNTYLHWYLQKPGQSPQLLIYKVSNRFSGVPDRFSGSGSGTDFTLKISRVEAEDVGVYYCSQNTHVPPTFGQGTKVEIE
notes: copies: 2 + 2
Take B7: the relative binding activity is 77 % of GpH7-B3/GpL16-k0 in the assay with human FcγRIIIa(F); 50 % of GpH7-B3/GpL16-k0 in the assay with human FcγRIIa(R); 68 % of GpH7-B3/GpL16-k0 with human FcγRIIa(H); 69 % of GpH7-B3/GpL16-k0 with human FcγRIa; 47 % of GpH7-B3/GpL16-k0 with human FcγRIIb.

B8: GpH7-B3 variant L235H/GpL16-k0 (antibody, human IgG1)
heavy: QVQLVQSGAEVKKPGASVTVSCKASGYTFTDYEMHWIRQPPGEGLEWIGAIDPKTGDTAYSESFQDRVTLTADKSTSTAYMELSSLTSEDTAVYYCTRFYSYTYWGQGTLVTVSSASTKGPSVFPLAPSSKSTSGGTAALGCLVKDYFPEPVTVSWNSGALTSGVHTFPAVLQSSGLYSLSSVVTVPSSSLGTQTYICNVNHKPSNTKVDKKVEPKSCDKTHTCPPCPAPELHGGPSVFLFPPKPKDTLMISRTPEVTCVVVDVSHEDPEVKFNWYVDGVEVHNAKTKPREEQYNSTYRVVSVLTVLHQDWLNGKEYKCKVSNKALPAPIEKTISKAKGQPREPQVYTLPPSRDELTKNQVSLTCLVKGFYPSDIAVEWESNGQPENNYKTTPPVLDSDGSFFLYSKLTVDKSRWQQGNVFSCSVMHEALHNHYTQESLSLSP
light: DIVMTQSPLSLPVTPGEPASISCQASESLVHSNRNTYLHWYLQKPGQSPQLLIYKVSNRFSGVPDRFSGSGSGTDFTLKISRVEAEDVGVYYCSQNTHVPPTFGQGTKVEIE
notes: copies: 2 + 2
On to B8, for which the relative binding activity was 28 % of GpH7-B3/GpL16-k0 in the assay with human FcγRIIIa(F); 91 % of GpH7-B3/GpL16-k0 with human FcγRIIa(R); 88 % of GpH7-B3/GpL16-k0 with human FcγRIIa(H); 2 % of GpH7-B3/GpL16-k0 with human FcγRIa; 66 % of GpH7-B3/GpL16-k0 in the assay with human FcγRIIb.

B9: GpH7-B3 variant L235N/GpL16-k0 (antibody, human IgG1)
heavy: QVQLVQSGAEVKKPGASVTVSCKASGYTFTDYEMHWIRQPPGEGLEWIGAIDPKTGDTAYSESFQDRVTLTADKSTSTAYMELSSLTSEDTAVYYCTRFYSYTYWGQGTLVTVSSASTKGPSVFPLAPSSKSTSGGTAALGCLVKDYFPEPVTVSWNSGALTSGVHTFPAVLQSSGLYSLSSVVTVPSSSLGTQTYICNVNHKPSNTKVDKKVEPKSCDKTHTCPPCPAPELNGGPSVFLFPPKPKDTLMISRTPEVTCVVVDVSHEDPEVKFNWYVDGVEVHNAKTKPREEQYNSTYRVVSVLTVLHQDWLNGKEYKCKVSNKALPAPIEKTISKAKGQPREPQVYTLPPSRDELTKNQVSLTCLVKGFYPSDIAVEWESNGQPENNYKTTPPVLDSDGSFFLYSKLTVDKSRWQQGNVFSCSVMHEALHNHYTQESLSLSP
light: DIVMTQSPLSLPVTPGEPASISCQASESLVHSNRNTYLHWYLQKPGQSPQLLIYKVSNRFSGVPDRFSGSGSGTDFTLKISRVEAEDVGVYYCSQNTHVPPTFGQGTKVEIE
notes: copies: 2 + 2
With B9, the relative binding activity is 35 % of GpH7-B3/GpL16-k0 in the assay with human FcγRIIIa(F); 35 % of GpH7-B3/GpL16-k0 with human FcγRIIa(R); 37 % of GpH7-B3/GpL16-k0 with human FcγRIIa(H); 3 % of GpH7-B3/GpL16-k0 with human FcγRIa; 27 % of GpH7-B3/GpL16-k0 with human FcγRIIb.

Source of the values: patent publication US20200199241A1 (Chugai, published 2020).
